In this assay the target is Bcl-2 recombinant protein, P10415. In words: in vitro binding of Bcl-2 recombinant protein to immunoprecipitated Flag-GSDMD, western blot with band values printed under the Bcl-2 blot. To be noted: chain shown with the change; incubated for one hour, then heavily washed; parent: 1. On the technique in general: Immunoblotting shows a protein as a band on a membrane.
Sequence of Bcl-2 recombinant protein, P10415 (P10415 whole entry): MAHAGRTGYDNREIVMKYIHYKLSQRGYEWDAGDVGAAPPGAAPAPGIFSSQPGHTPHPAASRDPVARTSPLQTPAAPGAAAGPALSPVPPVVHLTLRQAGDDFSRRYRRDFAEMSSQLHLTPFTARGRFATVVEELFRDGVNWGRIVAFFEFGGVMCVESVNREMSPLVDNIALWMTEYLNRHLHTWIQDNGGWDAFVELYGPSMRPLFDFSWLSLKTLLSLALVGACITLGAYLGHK

B1: Flag-GSDMD full length, P57764 L150Q (protein)
chain: MGSAFERVVRRVVQELDHGGEFIPVTSLQSSTGFQPYCLVVRKPSSSWFWKPRYKCVNLSIKDILEPDAAEPDVQRGRSFHFYDAMDGQIQGSVELAAPGQAKIAGGAAVSDSSSTSMNVYSLSVDPNTWQTLLHERHLRQPEHKVLQQQRSRGDNVYVVTEVLQTQKEVEVTRTHKREGSGRFSLPGATCLQGEGQGHLSQKKTVTIPSGSTLAFRVAQLVIDSDLDVLLFPDKKQRTFQPPATGHKRSTSEGAWPQLPSGLSMMRCLHNFLTDGVPAEGAFTEDFQGLRAEVETISKELELLDRELCQLLLEGLEGVLRDQLALRALEEALEQGQSLGPVEPLDGPAGAVLECLVLSSGMLVPELAIPVVYLLGALTMLSETQHKLLAEALESQTLLGPLELVGSLLEQSAPWQERSTMSLPPGLLGNSWGEGAPAWVLLDECGLELGEDTPHVCWEPQAQGRMCALYASLALLSGLSQEPH
In the case of B1, the ratio to parent was 0.45.

(Values after article PMC6901440.)
